Reference: paper doi:10.1101/2025.05.02.651858, “Structural basis of unidirectional DNA recombination by the ϕC31 serine integrase” (bioRxiv, 2025)

B2: ϕC31 integrase S12A (cleavage-deficient mutant, full length) (enzyme, Streptomyces phage ϕC31, UniProt Q9T221 1-605, looked up)
chain: MDTYAGAYDRQARERENSSAASPATQRSANEDKAADLQREVERDGGRFRFVGHFSEAPGTSAFGTAERPEFERILNECRAGRLNMIIVYDVSRFSRLKVMDAIPIVSELLALGVTIVSTQEGVFRQGNVMDLIHLIMRLDASHKESSLKSAKILDTKNLQRELGGYVGGKAPYGFELVSETKEITRNGRMVNVVINKLAHSTTPLTGPFEFEPDVIRWWWREIKTHKHLPFKPGSQAAIHPGSITGLCKRMDADAVPTRGETIGKKTASSAWDPATVMRILRDPRIAGFAAEVIYKKKPDGTPTTKIEGYRIQRDPITLRPVELDCGPIIEPAEWYELQAWLDGRGRGKGLSRGQAILSAMDKLYCECGAVMTSKRGEESIKDSYRCRRRKVVDPSAPGQHEGTCNVSMAALDKFVAERIFNKIRHAEGDEETLALLWEAARRFGKLTEAPEKSGERANLVAERADALNALEELYEDRAAGAYDGPVGRKHFRKQQAALTLRQQGAEERLAELEAAEAPKLPLDQWFPEDADADPTGPKSWWGRASVDDKRVFVGLFVDKIVVTKSTTGRGQGTPIEKRASITWAKPPTDDDEDDAQDGTEDVAA
notes: ϕC31 integrase, Streptomyces phage ϕC31, UniProt Q9T221, 605-amino acid polypeptide chain, with S12A; also called full-length S12A integrase; source: E. coli BL21 (DE3) LOBSTR, pET28a, purified (HisTrap Ni-NTA, Superose 6 SEC)

How the values were obtained:
[1] = biological target: B2; assay: SEC-MALS; SEC-MALLS with SDS-PAGE of the peaks: pre-formed integrase S12A–attB–attP synaptic complex mixed with RDF at 1:3 integrase:RDF molar ratio, 5 min room temperature; Superose 6 increase 10/300, 20 mM HEPES pH 7.4, 150 mM NaCl, 2 mM MgCl2, 0.1 mM TCEP, 25 °C; conditions: both partners purified
[2] = biological target: the molecule itself; assay: SEC-MALS; SEC-MALLS of equal amounts of purified integrase–attB and integrase–attP complexes mixed; step: two dimer–att complexes to the tetramer–attB–attP synaptic complex; Superose 6 increase 10/300, 20 mM HEPES pH 7.4, 150 mM NaCl, 2 mM MgCl2, 0.1 mM TCEP, 25 °C
[3] = biological target: the molecule itself; assay: SEC-MALS; SEC-MALLS of integrase–attL complexes, without RDF; step: dimer–attL to attL–attL synaptic complex; Superose 6 increase 10/300, 20 mM HEPES pH 7.4, 150 mM NaCl, 2 mM MgCl2, 0.1 mM TCEP, 25 °C
[4] = biological target: the molecule itself; assay: cryo-EM structure; WT integrase–attL60 dimer complex, without RDF; 20 mM HEPES pH 7.4, 150 mM NaCl, 2 mM MgCl2, 0.1 mM TCEP; 0.4 mg/ml

B1: ϕC31 Recombination Directionality Factor (RDF), gp3 (natural protein, Streptomyces phage ϕC31, UniProt Q9T216 1-244, looked up)
chain: MAKRSIWAGDEDNKPKKRETYADDTVGRFHSGYSETNERGKVVPVALDKWRISTGEQSVADAVAQLFGGTPVENEESTSENFIDVFTDRPKVPVIIEADGIHWDMKLWLNGKLKHHCDGFDFVSHADEEMIGQPCGCPKLFDERKAAAKEYDAPNPAITVTFTLADDPELGRFKFQTGSWTLFKVLHEAEDDVERVGKGGAVLANLELELVEYTPKRGPMRNKLVSYYKPTITVLKSYNDAIAD
notes: RDF gp3 protein of Streptomyces phage ϕC31, UniProt Q9T216; residues 23–239 were modelled in the cryo-EM structure; In the excisive synaptic complex structure the RDF stood as the C-terminal part of the fusion protein m9, not as the separate His-tagged protein; source: E. coli BL21 (DE3) LOBSTR, pET28a, purified (HisTrap Ni-NTA, Superdex 200 SEC)
- binding result [1]: binds

Binder: B2
- stoichiometry N [2]: 4

B3: ϕC31 integrase S12A/E449K (enzyme, Streptomyces phage ϕC31, UniProt Q9T221 1-605, looked up)
chain: MDTYAGAYDRQARERENSSAASPATQRSANEDKAADLQREVERDGGRFRFVGHFSEAPGTSAFGTAERPEFERILNECRAGRLNMIIVYDVSRFSRLKVMDAIPIVSELLALGVTIVSTQEGVFRQGNVMDLIHLIMRLDASHKESSLKSAKILDTKNLQRELGGYVGGKAPYGFELVSETKEITRNGRMVNVVINKLAHSTTPLTGPFEFEPDVIRWWWREIKTHKHLPFKPGSQAAIHPGSITGLCKRMDADAVPTRGETIGKKTASSAWDPATVMRILRDPRIAGFAAEVIYKKKPDGTPTTKIEGYRIQRDPITLRPVELDCGPIIEPAEWYELQAWLDGRGRGKGLSRGQAILSAMDKLYCECGAVMTSKRGEESIKDSYRCRRRKVVDPSAPGQHEGTCNVSMAALDKFVAERIFNKIRHAEGDEETLALLWEAARRFGKLTKAPEKSGERANLVAERADALNALEELYEDRAAGAYDGPVGRKHFRKQQAALTLRQQGAEERLAELEAAEAPKLPLDQWFPEDADADPTGPKSWWGRASVDDKRVFVGLFVDKIVVTKSTTGRGQGTPIEKRASITWAKPPTDDDEDDAQDGTEDVAA
notes: ϕC31 integrase, UniProt Q9T221, with S12A and E449K; also called S12A/E449K double mutant; source: E. coli BL21 (DE3) LOBSTR, pET28a, purified (HisTrap Ni-NTA, Superose 6 SEC)
- binding result [3]: binds

B4: ϕC31 integrase (wild type) (enzyme, Streptomyces phage ϕC31, UniProt Q9T221 1-605, looked up)
chain: MDTYAGAYDRQSRERENSSAASPATQRSANEDKAADLQREVERDGGRFRFVGHFSEAPGTSAFGTAERPEFERILNECRAGRLNMIIVYDVSRFSRLKVMDAIPIVSELLALGVTIVSTQEGVFRQGNVMDLIHLIMRLDASHKESSLKSAKILDTKNLQRELGGYVGGKAPYGFELVSETKEITRNGRMVNVVINKLAHSTTPLTGPFEFEPDVIRWWWREIKTHKHLPFKPGSQAAIHPGSITGLCKRMDADAVPTRGETIGKKTASSAWDPATVMRILRDPRIAGFAAEVIYKKKPDGTPTTKIEGYRIQRDPITLRPVELDCGPIIEPAEWYELQAWLDGRGRGKGLSRGQAILSAMDKLYCECGAVMTSKRGEESIKDSYRCRRRKVVDPSAPGQHEGTCNVSMAALDKFVAERIFNKIRHAEGDEETLALLWEAARRFGKLTEAPEKSGERANLVAERADALNALEELYEDRAAGAYDGPVGRKHFRKQQAALTLRQQGAEERLAELEAAEAPKLPLDQWFPEDADADPTGPKSWWGRASVDDKRVFVGLFVDKIVVTKSTTGRGQGTPIEKRASITWAKPPTDDDEDDAQDGTEDVAA
notes: ϕC31 integrase, Streptomyces phage ϕC31, UniProt Q9T221, 605-amino acid polypeptide chain; Used only for the integrase–attL cryo-EM complex (dimer on attL60 DNA); also called WT integrase; source: E. coli BL21 (DE3) LOBSTR, pET28a, purified (HisTrap Ni-NTA, Superose 6 SEC)
- binding result [4]: binds

B5: ϕC31 integrase ΔNTD (residues 1–140 deleted) (domain or fragment, Streptomyces phage ϕC31, UniProt Q9T221 141-605, looked up)
chain: ASHKESSLKSAKILDTKNLQRELGGYVGGKAPYGFELVSETKEITRNGRMVNVVINKLAHSTTPLTGPFEFEPDVIRWWWREIKTHKHLPFKPGSQAAIHPGSITGLCKRMDADAVPTRGETIGKKTASSAWDPATVMRILRDPRIAGFAAEVIYKKKPDGTPTTKIEGYRIQRDPITLRPVELDCGPIIEPAEWYELQAWLDGRGRGKGLSRGQAILSAMDKLYCECGAVMTSKRGEESIKDSYRCRRRKVVDPSAPGQHEGTCNVSMAALDKFVAERIFNKIRHAEGDEETLALLWEAARRFGKLTEAPEKSGERANLVAERADALNALEELYEDRAAGAYDGPVGRKHFRKQQAALTLRQQGAEERLAELEAAEAPKLPLDQWFPEDADADPTGPKSWWGRASVDDKRVFVGLFVDKIVVTKSTTGRGQGTPIEKRASITWAKPPTDDDEDDAQDGTEDVAA
notes: ϕC31 integrase, UniProt Q9T221, residues 1–140 deleted from the 605-amino acid chain; source: E. coli BL21 (DE3) LOBSTR, pET28a, purified (HisTrap Ni-NTA, Superose 6 SEC)
- binding result [2]: binds
